# Tests used:
# Assay in all cases: ELISA, antigen coated at 2 µg/mL
# [1] = target: CoV-2 S (R683A, R685A) (SARS-CoV-2) (UniProt P0DTC2)
# [2] = target: CoV-2 RBD (W436R) (SARS-CoV-2) (UniProt P0DTC2)
# [3] = target: CoV-2 RBD (N354D, D364Y) (SARS-CoV-2) (UniProt P0DTC2)
# [4] = target: CoV-2 RBD (V367F) (SARS-CoV-2) (UniProt P0DTC2)
# [5] = target: CoV-2 RBD (N354D) (SARS-CoV-2) (UniProt P0DTC2)
# [6] = target: CoV-2 S (D614G) (SARS-CoV-2) (UniProt P0DTC2)
Substance,EC50 [1],EC50 [2],EC50 [3],EC50 [4],EC50 [5],EC50 [6]
IVIG (Gamunex),2840 µg/mL,1240 µg/mL,1320 µg/mL,1130 µg/mL,1240 µg/mL,1330 µg/mL
SARS CoV-2 mAb [SAD-S35] (antibody),0.05 µg/mL,0.04 µg/mL,0.05 µg/mL,0.04 µg/mL,0.04 µg/mL,0.03 µg/mL

# — patent publication US20230265171A1
